According to patent publication US20260266848A1, “COMPOSITIONS AND METHODS FOR DIAGNOSING AND TREATING DYSTONIA” (Duke University, priority 2023, published 2026):

B1: Plekho2 (protein, UniProt Q8K124 1-495, looked up)
Pleckstrin homology …: MEEESIKEGSEKPRGARTADKAGWIKKSSGGLLGLWKDRYLLLCQAQLLVYENEDEQKCVETVELGSYEKCQDLRTLLKRKHHRFILLRSPGNKVSDIKFQAPSGEEKESWIKALNEGINRGKNKAFDEVKVDKTCALEHVTRNRVRGGQRRRPPTRIHLKEVASAASDGLSRLDLDVPDSGPPVFAPLSDISEDQPQEPPRALMPPVKPSPGPETSAVEDSKETPAGERALTPDSASSGANPESQEDAETPAKEDSDVKSLPNSTLSEKLKVSWENPSPEKPSAPESAQLSSSETPEATPRESKKPPAPPPKILSEKMKACMSGVDASGSSQSSEAPETTSPEPTQVSVNGMDDGPESALQAMGIPGPAPEDAAASPALPFSDLPSQFHPRSSSLGDLLRESPQHPRLPKEKLYRAQLEVKVASKQTEKLLNQVLGSEPPPVCAESLLSQAVEQLRQATQVLQEMRDLGELNQETPGLVQKRKELVTLYRRSAP
B2: Hsd17b4 (protein, UniProt P51660 1-735, looked up)
Peroxisomal multifunctional …: MASPLRFDGRVVLVTGAGGGLGRAYALAFAERGALVIVNDLGGDFKGIGKGSSAADKVVAEIRRKGGKAVANYDSVEAGEKLVKTALDTFGRIDVVVNNAGILRDRSFSRISDEDWDIIHRVHLRGSFQVTRAAWDHMKKQNYGRILMTSSASGIYGNFGQANYSAAKLGILGLCNTLAIEGRKNNIHCNTIAPNAGSRMTETVLPEDLVEALKPEYVAPLVLWLCHESCEENGGLFEVGAGWIGKLRWERTLGAIVRKRNQPMTPEAVRDNWEKICDFSNASKPQTIQESTGGIVEVLHKVDSEGISPNRTSHAAPAATSGFVGAVGHKLPSFSSSYTELQSIMYALGVGASVKNPKDLKFVYEGSADFSCLPTFGVIVAQKSMMNGGLAEVPGLSFNFAKALHGEQYLELYKPLPRSGELKCEAVIADILDKGSGVVIVMDVYSYSGKELICYNQFSVFVVGSGGFGGKRTSEKLKAAVAVPNRPPDAVLRDATSLNQAALYRLSGDWNPLHIDPDFASVAGFEKPILHGLCTFGFSARHVLQQFADNDVSRFKAIKVRFAKPVYPGQTLQTEMWKEGNRIHFQTKVHETGDVVISNAYVDLVPASGVSTQTPSEGGELQSALVFGEIGRRLKSVGREVVKKANAVFEWHITKGGTVAAKWTIDLKSGSGEVYQGPAKGSADVTIIISDEDFMEVVFGKLDPQKAFFSGRLKARGNIMLSQKLQMILKDYAKL
B3: Ddx5 (protein, UniProt Q61656 1-614, looked up)
Probable ATP-dependent RNA …: MSSYSSDRDRGRDRGFGAPRFGGSRTGPLSGKKFGNPGEKLVKKKWNLDELPKFEKNFYQEHPDLARRTAQEVDTYRRSKEITVRGHNCPKPVLNFYEANFPANVMDVIARQNFTEPTAIQAQGWPVALSGLDMVGVAQTGSGKTLSYLLPAIVHINHQPFLERGDGPICLVLAPTRELAQQVQQVAAEYCRACRLKSTCIYGGAPKGPQIRDLERGVEICIATPGRLIDFLECGKTNLRRTTYLVLDEADRMLDMGFEPQIRKIVDQIRPDRQTLMWSATWPKEVRQLAEDFLKDYIHINIGALELSANHNILQIVDVCHDVEKDEKLIRLMEEIMSEKENKTIVFVETKRRCDELTRKMRRDGWPAMGIHGDKSQQERDWVLNEFKHGKAPILIATDVASRGLDVEDVKFVINYDYPNSSEDYIHRIGRTARSTKTGTAYTFFTPNNIKQVSDLISVLREANQAINPKLLQLVEDRGSGRSRGRGGMKDDRRDRYSAGKRGGFNTFRDRENYDRGYSNLLKRDFGAKTQNGVYSAANYTNGSFGSNFVSAGIQTSFRTGNPTGTYQNGYDSTQQYGSNVANMHNGMNQQAYAYPLPQAAPMIGYPMPTGYSQ
B4: Scfd1 (protein, UniProt Q8BRF7 1-639, looked up)
Sec1 family domain-containing …: MVGSKMAATASIRERQTVALKRMLNFNVPHVKNSTGEPVWKVLIYDRFGQDIISPLLSVKELRDMGITLHLLLHSDRDPIPDVPAVYFVMPTEENIDRLCQDLRNQLYESYYLNFISAISRSKLEDIANAALAASAVTQVAKVFDQYLNFITLEDDMFVLCNQNKELVSYRAINRPDITDTEMETVMDTIVDSLFCFFVTLGAVPIIRCSRGTAAEMVAVKLDKKLRENLRDARNSLFTGDPLGTGQFSFQRPLLVLVDRNIDLATPLHHTWTYQALVHDVLDFHLNRVNLEESTGVENSPAGARPKRKNKKSYDLTPVDKFWQKHKGSPFPEVAESVQQELESYRAQEDEVKRLKSIMGLEGEDEGAISMLSDNTAKLTSAVSSLPELLEKKRLIDLHTNVATAVLEHIKARKLDVYFEYEEKIMSKTTLDKSLLDVISDPDAGTPEDKMRLFLIYYISAQQAPSEVDLEQYKKALTDAGCNLSPLQYIKQWKAFAKMASTPASYGNTTTKPMGLLSRVMNTGSQFVMEGVKNLVLKQQNLPVTRILDNLMEMKSNPETDDYRYFDPKMLRSNDSSVPRNKSPFQEAIVFVVGGGNYIEYQNLVDYIKAKQGKHILYGCSEIFNATQFIKQLSQLGQK
B5: Mtap (protein, UniProt Q9CQ65 1-283, looked up)
S-methyl-5'-thioadenosine …: MASGSACTAVKIGIIGGTGLDDPEILEGRTEKYVDTPFGKPSDALILGKIKNVDCVLLARHGRQHTIMPSKVNYQANIWALKEEGCTHVIVTTACGSLREEIQPGDMVIIDQFIDRTSLRPQTFYDGSHCSARGVCHIPMAEPFCPKTREVLIETAKKLGLRCHSKGTIVTIEGPRFSSRAESLIFRTWGADVVNMTTVPEVVLAKEAGICYASIAMATDYDCWKEHEEAVSVDGVLKTMKENANKAKSLLLTTIPQIGSMEWSETLRNLKNMAQFSVLPPRH
B6: Efemp1 (protein, UniProt Q8BPB5 18-493, looked up)
EGF-containing fibulin-like …: QYTEETITYTQCTDGYEWDPIRQQCKDIDECDIVPDACKGGMKCVNHYGGYLCLPKTAQIIVNNEHPQQETPAAEASSGATTGTVAARSMATSGVVPGGGFMASATAVAGPEVQTGRNNFVIRRNPADPQRIPSNPSHRIQCAAGYEQSEHNVCQDIDECTSGTHNCRTDQVCINLRGSFTCQCLPGYQKRGEQCVDIDECTVPPYCHQRCVNTPGSFYCQCSPGFQLAANNYTCVDINECDASNQCAQQCYNILGSFICQCNQGYELSSDRLNCEDIDECRTSSYLCQYQCVNEPGKFSCMCPQGYEVVRSRTCQDINECETTNECREDEMCWNYHGGFRCYPRNPCQDHYVLTSENRCVCPVSNTMCRELPQSIVYKYMSIRSDRSVPSDIFQIQATMIYANTINTFRIKSGNENGEFYLRQTSPVSAMLVLVKSLSGPREYIVDLEMLTVSSIGTFRTSSVLRLTIIVGPFSF
B7: Dbn1 (protein, UniProt Q16643 2-649, looked up)
Drebrin: AGVSFSGHRLELLAAYEEVIREESAADWALYTYEDGSDDLKLAASGEGGLQELSGHFENQKVMYGFCSVKDSQAALPKYVLINWVGEDVPDARKCACASHVAKVAEFFQGVDVIVNASSVEDIDAGAIGQRLSNGLARLSSPVLHRLRLREDENAEPVGTTYQKTDAAVEMKRINREQFWEQAKKEEELRKEEERKKALDERLRFEQERMEQERQEQEERERRYREREQQIEEHRRKQQTLEAEEAKRRLKEQSIFGDHRDEEEETHMKKSESEVEEAAAIIAQRPDNPREFFKQQERVASASAGSCDVPSPFNHRPGSHLDSHRRMAPTPIPTRSPSDSSTASTPVAEQIERALDEVTSSQPPPLPPPPPPAQETQEPSPILDSEETRAAAPQAWAGPMEEPPQAQAPPRGPGSPAEDLMFMESAEQAVLAAPVEPATADATEIHDAADTIETDTATADTTVANNVPPAATSLIDLWPGNGEGASTLQGEPRAPTPPSGTEVTLAEVPLLDEVAPEPLLPAGEGCATLLNFDELPEPPATFCDPEEVEGESLAAPQTPTLPSALEELEQEQEPEPHLLTNGETTQKEGTQASEGYFSQSQEEEFAQSEELCAKAPPPVFYNKPPEIDITCWDADPVPEEEEGFEGGD

system: DYT-TOR1A MEF EVs; assay: Quantitative LC-MS/MS proteomics of EVs from drug-treated DYT-TOR1A MEF cultures (ritonavir, salubrinal); assay type: cell-based, mouse; parameters: key to RTV Corrective Direction / RTV Corrective Direction, Grwd1 / RTV Corrective Direction, Srrm2 / RTV Corrective Direction, Rbm17 / RTV Corrective Direction, Dcaf8 / RTV Corrective Direction, Edil3 / RTV Corrective Direction, Timp3 / RTV Corrective Direction, Heatr3 / RTV Corrective Direction, Brd4 / RTV Corrective Direction, P3h4 / RTV Corrective Direction, Pacsin3 / RTV Corrective Direction, Naa50 / RTV Corrective Direction, Lpar6 / RTV Corrective Direction, Ndrg1 / RTV Corrective Direction, Kntc1 / RTV Corrective Direction, Cdk11b / RTV Corrective Direction, Sumo1 / RTV Corrective Direction, Lsm4 / RTV Corrective Direction, Hmga2 / RTV Corrective Direction, Cstf1 / RTV Corrective Direction, Tes / RTV Corrective Direction, Sbno1 / RTV Corrective Direction, Unc119b / RTV Corrective Direction, Cfdp1 / RTV Corrective Direction, Sec61b: YES = protein abundance effect opposite to DYT/WT; conditions: EV protein abundance, DYT + RTV (ritonavir) vs DYT, direction compared with DYT/WT

Row | Molecule | RTV Corrective Direction
1 | B1 | YES
2 | B2 | YES
3 | B3 | YES
4 | B4 | YES
5 | B5 | YES
6 | B6 | YES
7 | B7 | YES

same assay, conditions: EV protein abundance, ritonavir (RTV)-treated DYT vs DYT

Row | Molecule | DYT + RTV/DYT Cohen's d
8 | B1 | −5.03
9 | B2 | 4.01
10 | B3 | 4.48
11 | B4 | 4.43
12 | B5 | 3.50
13 | B6 | −4.60
14 | B7 | 4.58

system: WT MEF EVs; assay: Quantitative LC-MS/MS proteomics of EVs from ISRIB-treated WT MEF cultures; assay type: cell-based, mouse; parameters: key to ISRIB and DYT Parallel Direction / ISRIB and DYT Parallel Direction, Ctdsp1 / ISRIB and DYT Parallel Direction, Pcdh19 / ISRIB and DYT Parallel Direction, Tspan7 / ISRIB and DYT Parallel Direction, Myo1e / ISRIB and DYT Parallel Direction, Plpp3 / ISRIB and DYT Parallel Direction, Sh3bp4 / ISRIB and DYT Parallel Direction, Dnajc7 / ISRIB and DYT Parallel Direction, Drg1 / ISRIB and DYT Parallel Direction, Maea: YES = protein abundance effect similar to DYT/WT; conditions: EV protein abundance, ISRIB-treated WT vs WT

Row | Molecule | WT + ISRIB/WT Cohen's d
15 | B1 | 0.14
16 | B2 | −2.20
17 | B3 | −0.92
18 | B4 | −2.48
19 | B5 | −0.85
20 | B6 | 0.07
21 | B7 | −3.18

same assay, conditions: EV protein abundance, WT + ISRIB vs WT, direction compared with DYT/WT

Row | Molecule | ISRIB and DYT Parallel Direction
22 | B1 | YES
23 | B2 | YES
24 | B3 | YES
25 | B4 | YES
26 | B5 | YES
27 | B6 | YES
28 | B7 | YES
